Test results: patent US8013137B2, “Modified enteropeptidase protein” (National University Corporation Hokkaido University, priority 2006, dated 2011)
Where a chain is given by its changes, count along the chain named. Numbers in names are those of the source.

B1: Bovine (Neb): bovine EP protease available from NEB (protein)
chain: IVGGSDSREGAWPWVVALYFDDQQVCGASLVSRDWLVSAAHCVYGRNMEPSKWKAVLGLHMASNLTSPQIETRLIDQIVINPHYNKRRKNNDIAMMHLEMKVNYTDYIQPICLPEENQVFPPGRICSIAGWGALIYQGSTADVLQEADVPLLSNEKCQQQMPEYNITENMVCAGYEAGGVDSCQGDSGGPLMCQENNRWLLAGVTSFGYQCALPNRPGVYARVPRFTEWIQSFLH
B2: Bovine (Nvg): bovine EP protease available from Novagen (protein)
chain: B1 chain
B3: EP-2: recombinant serine protease domain of Medaka enteropeptidase-2 (AB272105) (protein)
chain: MKRRLTNLEVLLTVTTSLFAVCCVCLIVVSCIGLKPEGAAEPVQLIGQMVITAGAAFSEELRNSSSHLFKSLAFDVQQLVSDAFGASELRLLYRSFRVLYFRPGSIAVTFDLEFNQQIDLNEVKQQLGEGLQQIEDGALVIDVDSIQITEKPSSTTPEPTSTTGHITTETMPITGHTTPAATPTAASCPPDHSLCWDRSTCVLTDVLCDGVSDCPDASDENSSRCATTCDGQFVLGGPNGTFRSSETETYRNNSNCRWIIRMDGGLSVQVNFHHFETEEYSDVLKLYEGVGPHKQLAAELSGPSPPGTVLLLNNQVTVEFTSDGVNDLSGFRASYVAVNTSSLSNQEKLSCSFDQGFCFWRQLQDSFDTWIRTNVPTFPPLTGPNFDHTFGNSSGFYIVTSLSPGQWLKSFVINSLPLAPSSHPTCLSFWYHMFGEDVYRLRVLLRPSQPELTEVVLFHKEGNFGDNWNYAQITLNLSTESTVVFEAQKEGGNQNDIALDDISLRSEGCGPAPPEPTNVPLPTTAAPIPPDCGGPFDLWEPNSTFTSPNYPQSYGDGAECLWTLHAEKGQNIQLHFLDFDVEATYDVVEVRDGAGLNSTLLAVLSGSDGPTRDLYSTDNQMTVWFYTDSGGFGRGFRANFTSGVNLGSQAPCTNGQFQCQTGDCIHGDRQCDGVADCPDGYDEADCVALQVNGSHRLHFLLLRSLLTVCADTWDSELSDFTCQYLGYRSGEESLQSVLPQDAAFAVVTVSSNGTLETQVRETCSSGEVISLNCSNQPCGQRQVYNHGDQSENSKENNGVPRVVGGVNAEKGAWPWMVSLHWRGRHGCGASLIGRDWLLTAAHCVYGKNTHLQYWSAVLGLHAQSSMNSQEVQIRQVDRIIINKNYNRRTKEADIAMMHLQQPVNFTEWVLPVCLASEGQHFPAGRRCFIAGWGRDAEGGSLPDILQEAEVPLVDQDECQRLLPEYTFTSSMLCAGYPEGGVDSCQGDSGGPLMCLEDARWTLIGVTSFGVGCGRPERPGAYARVSAFASWIAETRRSSFSDLD
modifications: Oryzias latipes
B4: K63R: Medaka EP-1 protease mutant, substitution K63R (protein)
chain: CGQRQVYNSKENNGVPRVVGGVNAEKGAWPWMVSLHWRGRHGCGASLIGRDWLLTAAHCVYGRNTHLQYWSAVLGLHAQSSMNSQEVQIRQVDRIIINKNYNRRTKEADIAMMHLQQPVNFTEWVLPVCLASEDQHFPAGRRCFIAGWGRDAEGGSLPDILQEAEVPLVDQDECQRLLPEYTFTSSMLCAGYPEGGVDSCQGDSGGPLMCLEDARWTLIGVTSFGVGCGRPERPGAYARVSAFTSWIAETRRSSFSDLD
B5: T105E: Medaka EP-1 protease mutant, substitution T105E (protein)
chain: B4 chain with R63K, T105E
B6: F144A: Medaka EP-1 protease mutant, substitution F144A (protein)
chain: B4 chain with R63K, F144A
B7: P193E: Medaka EP-1 protease mutant, substitution P193E (protein)
chain: B4 chain with R63K, P193E
B8: E173K: Medaka EP-1 protease mutant, substitution E173K (protein)
chain: B4 chain with R63K, E173K
B9: F144S: Medaka EP-1 protease mutant, substitution F144S (protein)
chain: B4 chain with R63K, F144S

Columns and labels:
Assay type in all cases: biochemical
GD4K-βNA = experiment: EP activity and kinetic study with specific substrate GD4K-βNA; conditions: for Km / kcat: substrate GD4K-βna
Method: (A) Active recombinant EP proteases were assayed using a GD4K-βNA (SEQ ID NO: 6) substrate as a substrate. Bovine (Nvg), bovine EP protease available from Novagen; Bovine (Neb), bovine EP protease available from NEB. (B) Active recombinant EP proteases were assayed using various synthetic peptide substrates. (C) Active EP proteases were analyzed by gelatin zymography. (D) Fibronectin (4 μg) was incubated with active EPs (100 ng) at 37° C. for 12 h. (E) Laminin ((10 μg) was incubated with active recombinant EPs (100 ng) at 37° C. for 12 h. (F) Two μg of the control protein containing the D4K site (SEQ ID NO: 1) was incubated with active recombinant EPs (100 ng) at 37° C. for 1 h.
(A) The purity of purified recombinant Medaka EP-1 and EP-2 protease was assessed by SDS-PAGE. Lane 1, Medaka EP fusion protein; lane 2, Medaka EP protease treated with immobilized trypsin; lane 3, Medaka EP protease purified using a resource Q column. (B) The enzyme activities of EP proteases were determined at various pHs using GD4K-βNA (SEQ ID NO: 6) as a substrate. (C) Recombinant Medaka trypsinogen was incubated at 37° C. with EPs for 15, 30 and 45 min. After incubation, samples were analyzed by SDS-PAGE and visualized by CBB staining (upper panel). The relative amount of the active form of Medaka trypsin at each time point were calculated based on the results shown in the upper panel (lower panel). The results are presented as the means (±SD) of three separate experiments.
(§1) EP activity was routinely determined using the specific substrate Gly-Asp-Asp-Asp-Asp-Lys-β-naphthylamide (GD4K-βNA) (SEQ ID NO: 6) (Sigma) according to the method of Mikhailova and Rumsh (Mikhailova et al., FEBS Lett., 442:226-230 (1999)). Enzyme activity for various 4-methylcoumaryl-7-amide (MCA)-containing peptide substrates was determined by the method of Barrett (Barrett et al., J., Biochem. J., 187:909-912 (1980)). For kinetic studies, initial velocities, extrapolated from the plot of product versus time, were transformed into double-reciprocal plots (Lineweaver et al., J. Am. Chem. Soc., 56:658-663 (1934)). The maximum velocities (Vmax) and Km and kcat values were obtained from the intercepts of these plots. For all experiments, the results of at least three separate determinations are shown.

Pro-Phe-Arg-MCA = experiment: Activity assay of EP proteases and EP-treated hK8 samples with Pro-Phe-Arg-MCA (FIG. 4B middle)
Method: (A) A recombinant fusion protein of Medaka gelatinase A (5 μg) was separately incubated with active EP proteases (100 ng) at 37° C. for 1 h, and analyzed by SDS-PAGE. (B) A recombinant fusion protein of human kallikrein 8 (hK8) (5 μg) was incubated with active EP proteases (100 ng) at 37° C. for 2 h. After incubation, the samples were analyzed by SDS-PAGE (upper panel), or assayed for activity with Pro-Phe-Arg-MCA (middle panel), or Boc-Glu(OBzl)-Ala-Arg-MCA (lower panel). […] The samples were then analyzed by SDS-PAGE/Western blotting using anti-human tPA antibody (upper panel) or anti-His probe antibody (lower panel). The position of sctPA (58- and 61-kDa) detected with the antibodies is shown.
as §1
Next, a 35.5-kDa protein of human kallikrein 8 (hK8) in the same E. coli expression system was synthesized. Digestion with Medaka wild-type and mutant EP proteases generated 31.5-kDa active hK8 by cleaving the D4K sequence (SEQ ID NO: 1) (FIG. 4B, Top). […] The EP protease-treated samples were directly assayed for hK8 activity using Pro-Phe-Arg-MCA, a good synthetic peptide substrate of hK8 (Rajapakse et al., FEBS Lett., 579:6879-6884 (2005)). […] The substrate Boc-Glu(OBzl)-Ala-Arg-MCA, which is slightly cleaved by active hK8, was rapidly hydrolyzed with the samples treated with mammalian, but not Medaka, EP proteases (FIG. 4B, Bottom).

[1] = test system: GD4K-βNA and the three MCA-containing substrates; experiment: Specific activities of wild-type and mutant EP protease using synthetic peptide substrates (FIG. 3A)
Method: (A) The specific activities of wild-type (EP-1) and mutant EP protease were determined using synthetic peptide substrates. (B) High-molecular-weight (HMW) kininogen (5 μg) was incubated with active EP proteases (100 ng) at 37° C. for 2 h and analyzed by SDS-PAGE. (C) Fibrinogen (10 μg) was incubated with active EP proteases (100 ng) at 37° C. for 12 h and analyzed by SDS-PAGE.
as §1

[2] = test system: recombinant Medaka trypsinogen; experiment: Activation of recombinant Medaka trypsinogen, SDS-PAGE; conditions: 37° C., 15, 30 and 45 min

Molecule	Km (GD4K-βNA)	kcat (GD4K-βNA)	enzyme activity of the EP protease itself with Pro-Phe-Arg-MCA (Pro-Phe-Arg-MCA)	enzyme activity for synthetic peptide substrates compared with the wild-type enzyme [1]	further results
B1	500 µM	25 s⁻¹	considerable enzyme activities were detected		
B2	800 µM	12.8 s⁻¹			Pro-Phe-Arg-MCA-hydrolyzing activity of hK8 fusion protein samples treated with EP protease (Pro-Phe-Arg-MCA): very low activity
B3					pH of maximal activity for GD4K-βNA (GD4K-βNA; serine protease domain, FIG. 8B): 8
B4	200 µM	3.5 s⁻¹	none of the Medaka EP proteases (wild-type EP-1, K63R, E173A, or E193A) showed any significant enzyme activity	reduced enzyme activity for synthetic peptide substrates	conversion of recombinant Medaka trypsinogen to active trypsin [2]: converted to trypsin as fast as the wild type enzyme
B5	400 µM	4.33 s⁻¹		reduced enzyme activity for synthetic peptide substrates	
B6				at an elevated rate when compared with the wild-type enzyme	
B7	400 µM	4.83 s⁻¹	none of the Medaka EP proteases (wild-type EP-1, K63R, E173A, or E193A) showed any significant enzyme activity	reduced enzyme activity for synthetic peptide substrates	
B8				reduced enzyme activity for synthetic peptide substrates	
B9				reduced enzyme activity for synthetic peptide substrates	
